Test results reported in paper PMC11702068, “NEK8 promotes the progression of gastric cancer by reprogramming asparagine metabolism” (Molecular Medicine, 2025).

Target: T1, His-NEK8 (UniProt Q86SG6 1-692)
T1 construct: NEK8 (NIMA-related kinase 8); also called His-tagged NEK8; source: E. coli BL21, purified (Ni-NTA agarose)
T1 sequence (looked up): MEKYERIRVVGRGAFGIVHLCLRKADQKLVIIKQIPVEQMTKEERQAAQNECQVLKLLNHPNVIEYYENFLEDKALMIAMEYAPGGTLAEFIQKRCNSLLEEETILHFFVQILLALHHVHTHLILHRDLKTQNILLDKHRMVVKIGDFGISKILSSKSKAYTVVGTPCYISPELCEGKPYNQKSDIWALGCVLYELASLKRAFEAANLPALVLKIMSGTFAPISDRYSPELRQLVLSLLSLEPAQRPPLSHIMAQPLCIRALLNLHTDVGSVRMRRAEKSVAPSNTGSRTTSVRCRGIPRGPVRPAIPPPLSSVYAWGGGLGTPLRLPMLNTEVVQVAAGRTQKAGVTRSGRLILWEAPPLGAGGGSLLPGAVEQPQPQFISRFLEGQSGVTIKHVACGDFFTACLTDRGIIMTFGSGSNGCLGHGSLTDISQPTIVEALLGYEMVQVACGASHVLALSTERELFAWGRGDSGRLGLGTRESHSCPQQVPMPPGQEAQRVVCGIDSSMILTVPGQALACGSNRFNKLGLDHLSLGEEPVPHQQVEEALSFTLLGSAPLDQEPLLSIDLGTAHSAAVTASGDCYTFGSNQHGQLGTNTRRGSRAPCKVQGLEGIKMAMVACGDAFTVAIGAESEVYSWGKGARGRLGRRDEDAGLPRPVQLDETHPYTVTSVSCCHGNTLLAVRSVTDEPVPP
Experiment: pull-down; GST affinity isolation: GST-tagged NEK8 or ASNS proteins on glutathione-Sepharose 4B beads incubated with His-tagged ASNS or NEK8 at 4 °C for five hours; wash with GST binding buffer (2 mM EDTA, 50 mM NaF, 100 mM NaCl, 1% NP-40); immunoblotting
Details: both partners purified

binding result: binds
B1: GST-ASNS full-length (enzyme, UniProt P08243 1-561, looked up)
chain: MCGIWALFGSDDCLSVQCLSAMKIAHRGPDAFRFENVNGYTNCCFGFHRLAVVDPLFGMQPIRVKKYPYLWLCYNGEIYNHKKMQQHFEFEYQTKVDGEIILHLYDKGGIEQTICMLDGVFAFVLLDTANKKVFLGRDTYGVRPLFKAMTEDGFLAVCSEAKGLVTLKHSATPFLKVEPFLPGHYEVLDLKPNGKVASVEMVKYHHCRDVPLHALYDNVEKLFPGFEIETVKNNLRILFNNAVKKRLMTDRRIGCLLSGGLDSSLVAATLLKQLKEAQVQYPLQTFAIGMEDSPDLLAARKVADHIGSEHYEVLFNSEEGIQALDEVIFSLETYDITTVRASVGMYLISKYIRKNTDSVVIFSGEGSDELTQGYIYFHKAPSPEKAEEESERLLRELYLFDVLRADRTTAAHGLELRVPFLDHRFSSYYLSLPPEMRIPKNGIEKHLLRETFEDSNLIPKEILWRPKEAFSDGITSVKNSWFKILQEYVEHQVDDAMMANAAQKFPFNTPKTKEGYYYRQVFERHYPGRADWLSHYWMPKWINATDPSARTLTHYKSAVKA
notes: asparagine synthetase (ASNS), full-length (FL); also called FL
